Measurements: patent publication US20220033508A1 (ADC THERAPEUTICS, published 2022)

T1: Recombinant human extracellular domain of IL13RA2-6His (27-343) (human, UniProt Q14627 27-343)
T1 construct: also called Human IL13RA2-6His; human IL13Rα2
T1 sequence: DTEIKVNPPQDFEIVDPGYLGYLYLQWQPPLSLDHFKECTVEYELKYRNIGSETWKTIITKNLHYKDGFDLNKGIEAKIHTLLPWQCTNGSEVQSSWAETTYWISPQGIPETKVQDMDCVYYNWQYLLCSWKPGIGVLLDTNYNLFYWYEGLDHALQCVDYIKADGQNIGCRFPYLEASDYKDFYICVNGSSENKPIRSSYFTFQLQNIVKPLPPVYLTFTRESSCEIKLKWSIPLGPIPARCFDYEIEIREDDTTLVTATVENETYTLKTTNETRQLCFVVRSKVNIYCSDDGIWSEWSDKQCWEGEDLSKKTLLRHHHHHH

T2: IL13RA2 on NCI-H1299 cells (human, UniProt Q14627)
T2 construct: cell-surface protein on NCI-H1299 cells; Cell-borne form of the target; It is kept apart from m1, which is the recombinant His-tagged extracellular domain; The sheet's title names the antibodies 'anti-IL13RA2 IgG' and the cells 'NCI-H1299 cells'; also called IL13Rα2; Interleukin-13 receptor subunit alpha-2
T2 sequence (receptor chain, looked up): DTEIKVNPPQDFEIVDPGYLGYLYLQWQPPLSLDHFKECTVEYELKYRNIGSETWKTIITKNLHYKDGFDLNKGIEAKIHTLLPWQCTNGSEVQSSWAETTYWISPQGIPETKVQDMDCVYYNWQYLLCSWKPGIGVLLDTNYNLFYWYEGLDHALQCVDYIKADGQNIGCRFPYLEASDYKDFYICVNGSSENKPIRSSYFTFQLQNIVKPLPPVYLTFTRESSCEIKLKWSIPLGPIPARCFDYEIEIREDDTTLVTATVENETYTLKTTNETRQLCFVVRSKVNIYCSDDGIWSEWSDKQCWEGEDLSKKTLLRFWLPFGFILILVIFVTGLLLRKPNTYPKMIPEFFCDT


Key:
[1] = target: T1, Recombinant human extracellular domain …; test: Biacore (SPR), IL13RA2-6His on the sensor, bivalent antibody in solution
Excerpt: (§1) Biacore analysis using Human IL13RA2-6His coated sensor was used to calculate apparent affinity constants of the Clone 47 variants. A dilution series of the antibody variants were applied to the IL13RA2 sensor surface for 600 seconds […] to calculate the association constant Ka and buffer (HBS-EP+) was then applied for 1800 seconds to calculate the dissociation constant Kd. The ratio of the two constants will provide an apparent KD as the bivalency of the antibody will affect the binding kinetics.
(§2) Binding affinity of a chimeric (Ch) Clone 47 and select humanised variants to human IL13Rα2 was measured on Biacore.

[2] = target: T1, Recombinant human extracellular domain …; test: ELISA on plate-coated human IL13RA2-6His, anti-human-HRP detection
Method: (§3) Recombinant human extracellular domain of IL13RA2-6His (27-343) was obtained from Sino biological (Ref 10350-H08H). 50 μl of 1 μg/ml of human IL13RA2 in PBS was coated overnight at 4° C. on MaxiSorp ELISA plates. The following morning, the plate is washed with PBS/Tween20 0.02%. Each well has 200 μl of Superblock blocking buffer added and incubated at room temperature for 1 hour in an orbital shaker at 120 rpm. A dilution series of each antibody was prepared, with dilutions of each antibody variant in PBS/Tween20 0.02%. The antibodies are added to blocked antigen coated plates and incubated for 1 hour at room temperature with 120 rpm shaking on an orbital shaker. Plates are then washed 3-times with 200 μl of PBS/Tween20 0.02% and 75 μl of secondary antibody (Mouse anti-human-HRP diluted 1 in 4000 in PBS/Tween20 0.02%) is added to the wells and incubated for 1 hour at room temperature with 120 rpm shaking on an orbital shaker. Plates are then washed 3-times with 200 μl of PBS/Tween20 0.02%. To develop the ELISA, 75 μl of TMB-Turbo substrate is added to the wells and incubated at room temperature with 120 rpm shaking on an orbital shaker till a blue colour develops, the reaction is then stopped with the addition of 75 μl of 0.6 N HCl. Plates are read on the Envision at […] and curves are analysed using GraphPad prism software

[3] = target: T1, Recombinant human extracellular domain …; test: ELISA on coated IL13RA2-6His; antibody kept 8 days, column headed 'EC50 4° C.'
Method: as §3
(§4) Binding of the variants listed in Table 3 to IL13Rα2 was also assessed by ELISA following incubation at 4° C. or 45° C. for 8 days. […] These binding data also indicate that the humanised variants VHAback/VKA and VHA3/VKA2 have improved stability properties as compared to the chimeric Clone 47.

[4] = target: T1, Recombinant human extracellular domain …; test: ELISA on coated IL13RA2-6His; antibody kept 8 days, column headed 'EC50 45° C.'
Method: as §3, §4

[5] = target: T2, IL13RA2 on NCI-H1299 cells; test: flow cytometry on NCI-H1299 cells, Alexa Fluor 488 anti-human IgG detection
Method: NCI-H1299 cells were diluted to 2×10⁶ cells/mL in assay buffer (0.1% BSA/0.1% Sodium Azide in PBS) and 50 μL added per well to a 96-well-plate. The HuCL47 and Clone 47 antibodies were diluted to a top concentration of 40 μg/ml (266 nM) of and diluted 1:4 for 7 dilutions as well as buffer only. 50 μL of the antibody were added to 50 μL of cells to give a concentration of 20 μg/ml. The plate was incubated for 1 hour at room temperature, after which the plate was centrifuged and washed three times. A Goat F(ab′)2 Anti-Human IgG Alexa Fluor 488-conjugated antibody was used (Life Technologies Cat. No. H10120) at a 1 in 250 dilution for detection in assay buffer, 50 μL added to cells and after one hour of incubation at room temperature the cells centrifuged and washed as before, fixed with 7.5% formaldehyde and analysed on the Flow cytometer, with data analysis carried out using FlowJo.
Chimeric clone 47 and HuCL47 were compared in terms of their: binding to NCI-H1299 Cells by standard FACS analysis using NCI-H1299 cells and unmodified purified antibodies. In vitro cytotoxicity analysis was performed on both A375 and NCI-1299 cells, using a pyrollobenzodiazepine dimer (PBD) warhead conjugated to chimeric clone 47 and HuCL47.

[6] = target: T1, Recombinant human extracellular domain …; test: Biacore (SPR), apparent KD, IL13RA2-6His on the sensor, bivalent antibody in solution
Excerpt: as §1, §2

Row | koff [1] [s⁻¹] | kon [1] [M⁻¹ s⁻¹] | EC50 (read off the curve) [2] [nM] | EC50 [3] [µg/mL] | EC50 [4] [µg/mL] | EC50 (read off the curve) [5] [µg/mL] | Kd [6] [nM] | Binder
1 |  |  |  | 1.01 | 0.0128 |  |  | Clone 47 VHAback / Clone 47 VKA1 (antibody, V domains shown, Expressed as IgG in Expi293 cells; also called VHAback/VKA1) VH: QVQLVQSGAEVKKPGASVKVSCKASGYTFSNYLMNWVRQAPGQGLEWIGRIDPYDGDIDYNQNFKDRATLTVDKSASTAYMELSSLRSEDTAVYYCARGYGTAYGVDYWGQGTSVTVSS VL: EIVLTQSPATLSLSPGERATLSCRASESVDNYGISFMNWFQQKPGQAPRLLIYAASRQGSGIPDRFSGSGSGTDFTLTISRLEPEDFAVYYCQQSKEVPWTFGGGTKLEIK
2 | 5.3e-06 | 115000 |  | 0.0456 | 0.0164 |  | 0.05 | Clone 47 VHAback / Clone 47 VKA (antibody, V domains shown, Expressed as IgG in Expi293 cells; also called VHAback/VKA) VH: QVQLVQSGAEVKKPGASVKVSCKASGYTFSNYLMNWVRQAPGQGLEWIGRIDPYDGDIDYNQNFKDRATLTVDKSASTAYMELSSLRSEDTAVYYCARGYGTAYGVDYWGQGTSVTVSS VL: EIVLTQSPATLSLSPGERATLSCRASESVDNYGISFMNWYQQKPGQAPRLLIYAASRQGSGIPDRFSGSGSGTDFTLTISRLEPEDFAVYYCQQSKEVPWTFGGGTKLEIK
3 | 6.58e-05 | 125000 | ~0.04 | 0.0777 | 0.0168 | ~0.04 | 0.53 | chimeric (Ch) Clone 47 (antibody, V domains shown, Chimeric antibody with the murine Clone 47 variable domains; also called chimeric Clone 47) VH: QVQLQQPGAELVRPGASVKLSCKASGYTFSNYLMNWVKQRPEQDLDWIGRIDPYDGDIDYNQNFKDKAILTVDKSSSTAYMQLSSLTSEDSAVYYCARGYGTAYGVDYWGQGTSVTVSS VL: not shown

Further lines, the binder ahead of its results:

Row | Binder | koff [1] [s⁻¹] | kon [1] [M⁻¹ s⁻¹] | EC50 (read off the curve) [2] [nM] | EC50 [3] [µg/mL] | EC50 [4] [µg/mL] | EC50 (read off the curve) [5] [µg/mL] | Kd [6] [nM]
4 | Clone 47 VHA / Clone 47 VKA (HuCL47) (antibody, V domains shown, Expressed as IgG in Expi293 cells; also called VHA/VKA; VHANKA) VH: QVQLVQSGAEVKKPGASVKVSCKASGYTFSNYLMNWVRQAPGQGLEWMGRIDPYDGDIDYNQNFKDRVTITRDTSASTAYMELSSLRSEDTAVYYCARGYGTAYGVDYWGQGTSVTVSS VL: EIVLTQSPATLSLSPGERATLSCRASESVDNYGISFMNWYQQKPGQAPRLLIYAASRQGSGIPDRFSGSGSGTDFTLTISRLEPEDFAVYYCQQSKEVPWTFGGGTKLEIK | 1.12e-05 | 112000 | ~0.05 | 0.0178 | 0.0184 | ~0.04 | 0.1
5 | Clone 47 VHA / Clone 47 VKA1 (antibody, V domains shown, Expressed as IgG in Expi293 cells; also called VHA/VKA1) VH: QVQLVQSGAEVKKPGASVKVSCKASGYTFSNYLMNWVRQAPGQGLEWMGRIDPYDGDIDYNQNFKDRVTITRDTSASTAYMELSSLRSEDTAVYYCARGYGTAYGVDYWGQGTSVTVSS VL: EIVLTQSPATLSLSPGERATLSCRASESVDNYGISFMNWFQQKPGQAPRLLIYAASRQGSGIPDRFSGSGSGTDFTLTISRLEPEDFAVYYCQQSKEVPWTFGGGTKLEIK | 2.65e-05 | 124000 |  | 0.0581 | 0.0123 |  | 0.21
6 | Clone 47 VHA3 / Clone 47 VKA2 (antibody, V domains shown, Expressed as IgG in Expi293 cells; also called VHA3/VKA2) VH: QVQLVQSGAEVKKPGASVKVSCKASGYTFSNYLMNWVRQAPGQGLEWMGRIDPYDGDIDYNQNFKDRVTITRDKSASTAYMELSSLRSEDTAVYYCARGYGTAYGVDYWGQGTSVTVSS VL: EIVLTQSPATLSLSPGERATLSCRASESVDNYGISFMNWYQQKPGQAPRLLIYAASRQGSGIPDRFSGSGSGTDFTLTISRLEPEDFAVYFCQQSKEVPWTFGGGTKLEIK |  |  |  | 0.0258 | 0.0123 |  | 
7 | Clone 47 VHA / Clone 47 VKA2 (antibody, V domains shown, Expressed as IgG in Expi293 cells; also called VHA/VKA2) VH: QVQLVQSGAEVKKPGASVKVSCKASGYTFSNYLMNWVRQAPGQGLEWMGRIDPYDGDIDYNQNFKDRVTITRDTSASTAYMELSSLRSEDTAVYYCARGYGTAYGVDYWGQGTSVTVSS VL: EIVLTQSPATLSLSPGERATLSCRASESVDNYGISFMNWYQQKPGQAPRLLIYAASRQGSGIPDRFSGSGSGTDFTLTISRLEPEDFAVYFCQQSKEVPWTFGGGTKLEIK | 8.2e-06 | 131000 |  | 0.148 | 0.0204 |  | 0.06
